Results taken from patent US20040253242A1.

Target: cMpl receptor (human (cloned from Tf-1 cells, a human cell line)) (UniProt P40238)
Assay: cell-based or functional assay

Relative Fold Luciferase activity (c-Fos promoter), CMpl-R transfected NIH3T3 cells; +TPO: 2.32 fold
Substance: TPO (from UniProt P40225 22-353) (ligand)
